Test results from publication doi:10.1101/2020.01.08.898262 (bioRxiv, 2020).

Target: the molecule itself
Experiment: crystal structure

B1: Salmonella typhi outer membrane phospholipase A (OmpLA), leaderless (21Q-289F) (enzyme)
chain: QEATIKEVHDAPAVRGSIIANMLQEHDNPFTLYPYDTNYLIYTNTSDLNKEAISTYNWSENARKDEVKFQLSLAFPLWRGILGPNSVLGASYTQKSWWQLSNSKESSPFRETNYEPQLFLGFATDYRFAGWTLRDVEMGYNHDSNGRSDPTSRSWNRLYTRLMAENGNWLVEVKPWYVIGSTDDNPDITKYMGYYQLKIGYHLGEAVLSAKGQYNWNTGYGGAEVGLSYPVTKHVRLYTQVYSGYGESLIDYNFNQTRVGVGVMLNDIF
binding result: binds
